Source: the DeepSol protein solubility set

Test: soluble on expression in E. coli; label from the status in PepcDB or PDB records

| Sequence | soluble on expression in E. coli |
| --- | --- |
| MGHHHHHHSHMGDPEYLATFRIVVMPIAREFSPDLVLVSAGFDAAEGHPAPLGGYHVSAKCFGYMTQQLMNLAGGAVVLALEGGHDLTAICDASEACVAALLGNRVDPLSEEGWKQKPNLNAIRSLEAVIRVHSKYWGCMQRLASCPDSWVPRVPGADKEEVEAVTALASLSVGILAEDRPSEQLVEEEEPMNL | not soluble |
| MSLAGDDAVNLTLVTGAPANGGSCVAHHEGRVVFVRYALPGERVRARVTAQRGSYWHAEAFEVIDPSPDRIGSLCSIAGADGAGCCDLAFAAPEAARTLKAQVVANQLERLGRHSWQGEAQPLSDAGPTGWRIRVRLDVGADRRPGFHRYHSGELVTDLDCGQLPVGMLDGLVAADWPPEAQLYVALDDDGERHVVCSVRQGPRNRTRTVTNVVEGAYHAHQRVHRRSWRVPVTAFWQAHRDAAAVYSDLIADWAQPAPGMTAWDLYGGAGVFAAVLGEAVGESGRVLTVDTSRLASGAARAALVDLPQVEVVTGSVRRVLAVQPAGADLAVLDPPRSGAGREVVDLLAGAGVPRLIHIGCEAASFARDIGLYRGHGYAVEKIKVFDAFPLTHYVECVALLTRKVEGHHHHHH | soluble |
| MSLKCIAIDLDGTLLNKESVISAENREAIKRAVDAGILVTICTGRATFDVKALLDDLDIPIIAANGGTIHDTGYRLISRTLMDQEAGKAIADYLLSKNIYFEVYTDDHLLSPFDGEAKLHAELDILKSANPNEQTDDLWQGAMTQFKQFGIKPIPHIESVFDGGENIYKLLCFSFDMDKLKQAKEELKHHKKLAQTSSGKHIIEILPASSGKGRALTKLADIYGIETQDIYAIGDSPNDLSMFEVAGHRIAMENAIDELKEKSTFVTKSNDENGVAYFIDQLLSGQYAEGHHHHHH | soluble |
| MNNHIEALSYYLGAFVDELTLLNVCDVVISPGSRSTPIALLMEQHEGMNTYLHVDERSAGFFALGIAKAKKRPVALLCTSGTAAANYYPAVCEAFHSRVPLIVLTADRPHELRDVGAPQAMNQINLYGTFVKQFTEMALPEASEAMYHYARLTTQRMIASACLAPQGPVHLNFPVREPLIPDFSLESLWDKGRGEYTGVVQQGNAVMPSEYVDSLVGRLSHMEKGLIICGDDSHSEIAAFATQLAEKTGYPILADPLSNIRSGHHDKTMVIDCYDTFLRNELLKETWKPDVLIRFGGMPVSKALTQFIKKQTKAVHIVVDESGQWRDPALVATEVVQASDIAFCSALIEKMPVMKKNDWFRMWQHINEKTKETLREMETYDTAFEGRVITDIVRVLPEGATLFASNSMPIRDTDSFFFTSDKNIQVMANRGVNGIDGIISTALGASMICDPLVLVIGDLSFYHDLNGLLAAKLHELNITIVVVNNDGGGIFSFLPQYEKKEHFESLFGTPIGLDYEHVVTMYGGSFSRVNGWEQFREEVQKGVTTEGLHVVEICTNRDENLTLHRTLWAKTQDVITTSLQGESK | soluble |
| MRILVNLILFSLIPLAFSNENSSSYLIARPLIFETQLKNINDNVNLHCTSWRFAAETNNLAPWKTIPAECADYVKDYLMGEGYVVDVERVSEEAKVYASSFESNGDGKDIWIFDIDETLLSNLPYYMEHGCGLEVFDHSKFDMWVEKGIAPAIAPSLKLYQKVIHLGYKVILLTGRRENHRVITVENLRNAGFHNWDKLILRSLDDRNKTATMYKSEKREEMVKEGYRIRGNSGDQWSDLLGSAMSERSFKLPNPMYYIP | soluble |
| MPDLSAAEFTLLQGAHLFAPEDRGICDVLLANGKIIAVGAGIPGDIVPDCTVINLSGRMLCPGFIDQHVHLIGGGGEAGPTTRTPEVSLSRLTEAGITTVVGLLGTDSVSRHPASLLAKTRALNEEGITAWMLTGAYHVPSPTITGSVEKDVALIDRVIGVKCAVSDHRSAAPSGNQLASMAAESRVGGLLGGKPGVSVFHMGSSKKGLQPLYDILENSDVPIGKLLPTHVNRSESLFEQALAFALKGGVIDITTSIPDPVAPAEGIARAVKAGVPLSRVTLSSDGNGSQPLFDAAGNLTGIGVAGFESLLETLQTLVNHYGFSLANALRPLTTSVAAFLSLDGKGEIRPGNDADLLVFSADLRIEQVYARGKRMVNEGKACVKGTFEPA | not soluble |
| GSHMNPLASLTTDKNDLYINWLKSLSFFQTNSSCAEALVKVIPHYHNKLIDFSQVLQLVFSASEKFPIQENQPLPEQLMFLSNLEKQTPFAKAVGSSIYKLVTGKNLSLDFASQILKEASILEH | soluble |
| SLDRGEQGLLKTEPVAEEGEDAVTMLSAPEALTEEEQEELRRELTKVEEEIQTLSQVLAAKEKHLAELKRKLGISSLQEFKQNIAKGWQDVTATNAYKKTSETLSQAGQKASAAFSSVGSVITKKLEDVKNSPTFKSFEEKVENLKSKVGGAKPAGGDFGEVLNSTANATSTMTTEPPPEQMTES | soluble |
| MSLKQAAENTLNLNPVIGIRGKDLLTSARMVLLQAVRQPLHSARHVAHFSLELKNVLLGQSELRPGDDDRRFSDPAWSQNPLYKRYMQTYLAWRKELHSWISHSDLSPQDISRGQFVINLLTEAMSPTNSLSNPAAVKRFFETGGKSLLDGLGHLAKDLVNNGGMPSQVDMDAFEVGKNLATTEGAVVFRNDVLELIQYRPITESVHERPLLVVPPQINKFYVFDLSPDKSLARFCLRNGVQTFIVSWRNPTKSQREWGLTTYIEALKEAIEVVLSITGSKDLNLLGACSGGITTATLVGHYVASGEKKVNAFTQLVSVLDFELNTQVALFADEKTLEAAKRRSYQSGVLEGKDMAKVFAWMRPNDLIWNYWVNNYLLGNQPPAFDILYWNNDTTRLPAALHGEFVELFKSNPLNRPGALEVSGTPIDLKQVTCDFYCVAGLNDHITPWESCYKSARLLGGKCEFILSNSGHIQSILNPPGNPKARFMTNPELPAEPKAWLEQAGKHADSWWLHWQQWLAERSGKTRKAPASLGNKTYPAGEAAPGTYVHEREGHHHHHH | not soluble |
| MHIKSIHLDGFKSYQKHTDILDFSPTFNAITGYNGSGKSNILDSICFIMGINKLDNIRAKSMHELISHGGTKAIVQVRFDNTDKRCSPFGMEHLDEIVVQRIITAQATGKGCATSYTLNGHAATNGKMQDFFRGVGLNVNNPHFLIMQGRITTVLNMKPEEILGMVEEAAGTKMYDQKKKDAEKTMFLKDAKLKEVDRIFQSSIDPRMVKFREDRKNMVEVTRLKKLKENFSRKYEAFQYFQTCEAVKKSAKEIEDAKKGIEDLGEKFNQLDLDLKNKEDEKKKMEESRDDQHEEAALSAAHLSKQSIMLQKETVKNQLVETINKLKKEGEQINKSLSKDREVLDAKRKEHEDSKAANSKDIQSQSDDEALVTKYRNDLESLTRGTIANDKGEHVSIESEIQSCKSTASQMSSGITAAKKRGERLHNQIKHLEGEKATLSARSKSDIGSADNYQKEVDEINKQLQLLGFNIDADTEKREHAAKLHESITKLKDMDTRLLNSYKDGRYALNYQRPPLHIDKFDEKRDVFGYVAHLIKMKPGCEQFAVAADIALGGVLGNVVVSTQDIARILIDGKAFTSRKTMIPVSENARNASSYNTLPDVKLRRAKEIAEKYNDTVTKMIDLIEYPDFISNTILNAVGQILVVDSLDVAREIAYDEVAKTRMITRRGDDVRTNGIMTGGYNDPGNKPALIALEPMYARRPQIEAQQRELDALNRELQLTEASSQKCRDLNNQLATAMRKLAQVKTNINNSEFGIVVRDLKVHSEEYEKNQAEIEATVKTLKDVEDKIKTLESMKNKDKNSQEKRKKELTALLQKAEQTVAQNKNRGEKARREVMLLQATVEEMEKTIKKDEGIWEQKKKECDELEEKLPNAIAALKDAELEQKAAQAKLNDLKNNQRQISTRLGKIAKECDALIREKAKTKSKREEKEKELTSLQQSEASNRKEARSKLKKFEWLSDEEAHFNKKGGLYDFEGYTVSKGKDEIKELTDKIETLERSCCIQNVSNLDTCEAKVLDIKNKRERITEDFNMLKKTIATLDKKKVDELIRAHESVNKDFGQIFNCLLPDAHASLVPPEGKTVCEGLEVKVSFGGVVKDSLHELSGGQRSLVALSLILAMLKFKPAPLYILDEVDAALDLSHTANIGMMIKTHFHHNQFIIVSLKQGMFSNADVLFQTRFADGHSTCTRLNGGDIAVLCQDKVLQAQALELTDAGKAKKDAAAKKGAQKNDKEPPKKKPIVVDDDDFE | not soluble |
| MSLSYGVKLHVWGERALFTRPEMKVERVSYDIITPSAARGILEAIHWKPAIRWMVDSIQVLKPIRFESIRRNEVGGKLSAASVSKAIKAGRTDTLVSYVEEDRQQRAATLLRDVGYVIAAHFELTDKAGADDNVGKHLDIFNRRARRGQCFQAPCLGTREFPASFALIEDDAAMPAADATLAGERDLGWMLHDIDFADGMTPRFFRARMVDGQVEVPAPENGGVRAEGHHHHHH | soluble |
| MHKPLRIATVTATCAVAGAVLYTTGAASAGQSTANSTHEPYNIGVLAKDIDAYYGTTLDADGVYQASPDSPYAADLARVDAAAKKQIDRAARTAHHKHTRPAVVFDIDDTLLLSLDYEKKNNYGYDGATWAAYVDRADRPAVPGSPELARYADKKGVEVFYNSGLGEAQRAAAVENLKKAGADVNLDASHMFLKDKANPPSYLAHCATPGSWTCTTVQYKAGTRRHIERDLGYDVVANFGDQYSDLQGGYADRTYKLPNPTYFVE | soluble |
| AVKLQESGPGILKPSQTLSLTCSFSGFSLTTYGMGVGWIRQSSGKGLEWLAHIWWDDDKYYNPSLKSRLTISKDTSRNQVFLKITSVATADTATYYCARRAPFYGNHAMDYWGQGTTVTVSSAKTTPPSVYPLAPGSAAQTNSMVTLGCLVKGYFPEPVTVTWNSGSLSSGVHTFPAVLQSDLYTLSSSVTVPSSPRPSETVTCNVAHPASSTKVDKKI | soluble |
| MGSDKIHHHHHHMYLIGSDIGTQGTKSVIVNEKGEVLAEAFREYEVITPKPNWAEQWPDVWVKAVFETVKEVVEKSGVSKKEIAGIAISGLYGGSGIPVDRNMQPLRPCLIWMDRRAVKETEWVKQNVPKEKLFEITGNYVDSYFGFTKIMWIRNNEPEIWEKIYKFITPKDYVIYQMTGEVVIDYSSAGNLGGVFDIRKLTWSKEMCDVLGIPIEFLPERIVKSSDVVGRVTKEASELCGLLEGTPVVAGGIDAPVAQLSAGALEEGEHVAMVGTSTCWGTVHDGSKLAFGLVNYPYVVYDTERIYTFGGSATTGALARWFKEQFGESETIVGERTGISPYQLFDKEVANIPAGSEGIIVLPYFMGERSPIWDPTARGVFFGVTLYHKRAHLYRALMEGGAYALRHNMEEGLKAGLKLNDECWIVGGVSKSSVWVKIFADVTGFKMRQVASLVEAPYGDAFLAGLGTGVIDKPERIKEWVKYRDPVEPDPENKKIYDRYYEIYRELYERTKDLMARL | not soluble |
| MIHCDPFSINCFWENVIKFLQYDHSMFKIAITSVPARVDVSDLDRSLAYFLSDIGYIPKINPSTDMNSIKNSVYFRLFKECFLMNGERFWTPEELMSYLGTSRSTLYRHLNKLKYMDLLEEVKDGKIKKYRIRSGDILKAWSWVEINVKMAMDNYRSNVEHIVDLIRSNSNSNLRPLEHHHHHH | not soluble |
| MADAAEGEQPKLSKKELNKLARKAKKDEKAGEKGGNQQQAAAMDQEDASKDFYGSYGLVNSKEKKVLNFLKVKEINVSNATKDVWVRGRIHTTRSKGKNCFLVLRQGVYTVQVAMFMNEKISKQMLKFVSSISKESIVDVYATINKVDNPIESCTQKDVELLAQQVFVVSTSAPKLPLQIEDASRRAPTDEEKASEQENQLAVVNLDTRLDNRVIDLRTPTSHAIFRIQAGICNQFRNILDVRGFVEIMAPKIISAPSEGGANVFEVSYFKGSAYLAQSPQLYKQMAIAGDFEKVYTIGPVFRAEDSNTHRHMTEFVGLDLEMAFNFHYHEVMETIAEVLTQMFKGLQQNYQDEIAAVGNQYPAEPFQFCEPPLILKYPDAITLLRENGIEIGDEDDLSTPVEKFLGKLVKEKYSTDFYVLDKFPLSVRPFYTMPDAHDERYSNSYDMFMRGEEILSGAQRIHDADMLVERAKHHQVDLAKIQSYIDSFKYGCPPHAGGGIGLERVTMLFLGLHNIRLASLFPRDPKRLTP | not soluble |
